According to patent US20230295324A1 (published 2023):

Assays:
[1] = molecular target: T1, cynomolgus monkey OX40 protein (Novoprotein, #CB17) (cynomolgus monkey); assay: ELISA, coated cyno OX40 protein
T1 construct: Bought recombinant protein; also called cyno OX40
Protocol: (§1) This example is intended to investigate the in vitro binding activity of the anti-OX40 HCAb monoclonal antibodies prepared in Example 1 to human and cynomolgus monkey OX40 proteins. The antibody binding assay at the protein level was performed using a human OX40 protein (Acro biosystem, #OX0-H5224) and a cynomolgus monkey OX40 protein (Novoprotein, #CB17). Briefly, a 384-well plate (PerkinElmer, #6007509) was coated with 1 μg/mL human OX40 protein and a cynomolgus monkey OX40 protein dissolved in PBS at 20 μL/well, and incubated at 4° C. overnight. The next day, the 384-well plate was washed three times with PBS containing 0.05% Tween (MEDICAGO, #09-9410-100), and blocked with PBS containing 2% milk (Bio-Rad, #170-6404) at 37° C. for 1 h. […] The plate was added with a stop buffer (BBI life sciences, #E661006-0200) at 20 μL/well, and read for OD₄₅₀₋₆₅₀ values using a plate reader (Molecular Devices, model: SpectraMax Plus). The values were analyzed with Graphad 8.0 and plotted.

[2] = molecular target: T2, human OX40 protein (Acro biosystem, #OX0-H5224) (human, UniProt P43489 29-216); assay: ELISA, coated human OX40 protein
T2 construct: Bought recombinant protein
T2 sequence (looked up): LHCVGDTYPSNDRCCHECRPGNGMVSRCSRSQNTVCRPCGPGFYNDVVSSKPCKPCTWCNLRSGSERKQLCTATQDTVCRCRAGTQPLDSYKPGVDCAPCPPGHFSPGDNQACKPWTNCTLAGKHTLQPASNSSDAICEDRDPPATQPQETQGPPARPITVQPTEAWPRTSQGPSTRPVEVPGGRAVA
Protocol: as §1

[3] = molecular target: T3, human OX40 on cells (CHO-K1/hu OX40) (human, UniProt P43489 29-277); assay: FACS, CHO-K1/hu OX40 cells
T3 construct: whole, on cells; Also used here for OX40 on the HEK293/OX40/NF-kb reporter cells and on human T cells in the functional assays; also called CHO-K1/OX40; human OX40 cells
T3 sequence (looked up): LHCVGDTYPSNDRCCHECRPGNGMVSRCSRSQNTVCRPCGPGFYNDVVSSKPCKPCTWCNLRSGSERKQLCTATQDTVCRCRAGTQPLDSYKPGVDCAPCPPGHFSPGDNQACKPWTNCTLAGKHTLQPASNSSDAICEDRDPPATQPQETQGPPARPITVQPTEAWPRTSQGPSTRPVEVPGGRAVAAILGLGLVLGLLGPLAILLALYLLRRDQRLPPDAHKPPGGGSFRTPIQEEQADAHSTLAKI
Protocol: This example is intended to investigate the in vitro binding activity of anti-human OX40 HCAb monoclonal antibodies to human OX40. The antibody binding assay at the cellular level was performed using a stable CHO-K1 cell strain overexpressing human OX40 (CHO-K1/hu OX40). Briefly, the CHO-K1/hu OX40 cells were digested, resuspended in an F12K complete medium and washed once with PBS. The cell density was adjusted to 1×10⁶ cells/mL with PBS. The cells were seeded in a 96-well V-bottom plate (Corning, #3894) at 100 μL/well, and centrifuged, and then the supernatant was discarded. Then, the test antibodies diluted in a 3-fold gradient at concentrations that were 2 times the final concentrations were added at 100 μL/well. The cells were incubated at 4° C. for 1 h away from light. Thereafter, the cells in each well were rinsed twice with 100 μL of pre-cooled PBS, and centrifuged at 500 g at 4° C. for 5 min, and then the supernatant was discarded. […] The plate was incubated away from light at 4° C. for 30 min. The cells in each well were rinsed twice with 100 μL of pre-cooled PBS, and centrifuged at 500 g at 4° C. for 5 min, and then the supernatant was discarded. Finally, the cells in each well were resuspended in 200 μL of pre-cooled PBS, and the fluorescence signal values were read using a BD FACS CANTOII.

[4] = molecular target: T3, human OX40 on cells (CHO-K1/hu OX40); assay: cell-based or functional assay
[5] = molecular target: T3, human OX40 on cells (CHO-K1/hu OX40); assay: FACS, blocking of biotin-human OX40L on CHO-K1/hu OX40 cells
Protocol: Briefly, the CHO-K1/hu OX40 cells were digested and resuspended in an F-12K complete medium, and the cell density was adjusted to 1×10⁶ cells/mL. The cells were seeded in a 96-well V-bottom plate (Corning, #3894) at 100 μL/well, and centrifuged, and then the supernatant was discarded. The test antigen-binding proteins diluted in a 3-fold gradient at concentrations that were 2 times the final concentrations were added at 100 μL/well, and the mixture was well mixed, wherein the antigen-binding protein had the highest final concentration of 100 nM, and a total of 8 concentrations were obtained. […] The cells were incubated at 4° C. for 1 h away from light. Thereafter, the cells were centrifuged at 4° C. for 5 min, and then the supernatant was discarded. […] The cells in each well were rinsed twice with 100 μL of pre-cooled PBS, and centrifuged at 500 g at 4° C. for 5 min, and then the supernatant was discarded. A 1:200 fluorescent secondary antibody PE Streptavidin (BD Biosciences, #554061) was added at 100 μL/well, and the cells were incubated away from light at 4° C. for 30 min. The cells in each well were rinsed twice with 200 μL of pre-cooled PBS, and centrifuged at 500 g at 4° C. for 5 min, and then the supernatant was discarded. Finally, the cells in each well were resuspended in 200 μL of precooled PBS. Fluorescence signal values were read using BD FACS CANTOII, and IC50 was calculated. Inhibition rate %={average MFI of non-blocking control well−MFI value of OX40 antibody}/{(average MFI of non-blocking control well)−average MFI of 100% blocking control well)}×100%.

| Binder | EC50 [1] [nM] | Maximum OD [1] [OD] | EC50 [2] [nM] | Maximum OD [2] [OD] | EC50 [3] [nM] | Maximum MFI [3] [MFI] | EC50, HEK293/OX40/NF-kb luciferase reporter [4] [nM] | Maximum fluorescence signal value, HEK293/OX40/NF-kb luciferase reporter [4] [luminescence] | Maximum inhibition rate (%) [5] [%] | IC50 [5] [nM] |
| --- | --- | --- | --- | --- | --- | --- | --- | --- | --- | --- |
| PR002061 (antibody, human IgG1, V domains shown, no light chain; also called anti-OX40 HCAb antibody) VH: EVQLLESGGGLVQPGGSLRLSCAASGFTFSSYAMSWVRQAPGKGLEWVSAISGRGGSTYYADSVRGRFTISRDNSKNTLYLQMNSLRAEDTAVYYCANGMTGTTDVDYWGQGTLVTVSS | 0.152 | 1.87 | 0.134 | 1.96 | 10.9 | 1740 | 23.2 | 156000 | 16 | – |
| PR002057 (antibody, human IgG1, V domains shown, no light chain; also called anti-OX40 HCAb antibody) VH: EVQLLESGGGLVQPGGSLRLSCAASGFIFSSYAMSWVRQAPGKGLEWVSAISGGGGSTFYADSVRGRFTISRDNSKNTLYLQMNSLRAEDTAVYYCADGMTGTTDVDYWGQGTLVTVSS | 0.133 | 1.76 | 0.124 | 1.76 | 12.8 | 1670 | 14.3 | 172000 | 12 | – |
| PR002068 (antibody, human IgG1, V domains shown, no light chain; also called anti-OX40 HCAb antibody) VH: EVQLLESGGGLVQPGGSLRLSCAASGFSFSSYAMTWVRQAPGKGLEWVSAISGGGGSIFYADSVRGRFTISRDNSKNTLYLQMNSLRAEDTAVYYCANGMTGSTDVDYWGQGTQVTVSS | 0.253 | 2.38 | 0.092 | 2.42 | 10.1 | 2130 | 22.9 | 139000 | 25 | 23.1 |
| PR002060 (antibody, human IgG1, V domains shown, no light chain; also called anti-OX40 HCAb antibody) VH: EVQLLESGGGLVQPGGSLRLSCAASGFTFSDYAMSWVRQAPGKGLEWVSAISGRGGSTYYADSVRGRFTISRDNSKNTLYLQMTSLRAEDTAVYYCANGMTGTTDVDYWGQGTLVTVSS | 0.0938 | 1.94 | 0.0828 | 2.09 | 8.95 | 1860 | 15.1 | 132000 | 12 | – |
| PR002075 (antibody, human IgG1, V domains shown, no light chain; also called anti-OX40 HCAb antibody) VH: EVQLVETGGGLIQPGGSLRLSCAASGFTFSSYAMSWVRQAPGKGLEWVSAISGSGGNTYYADSVRGRFTISRDNSKNTLYLQMNSLRAEDTAVYYCANGITGTTDVDYWGQGTRVTVSS | 0.415 | 3.07 | 0.0618 | 2.48 | – | – | – | – | – | – |
| PR002062 (antibody, human IgG1, V domains shown, no light chain; also called anti-OX40 HCAb antibody) VH: EVQLLESGGGLVQPGGSLRLSCAASGFTFSSYAMSWVRQAPGKGQEWVSAISGSGGSTFYADSVRGRFTISRDNSKNTLYLQMSSLRAEDTAVYYCANGMTGTTDVDYWGQGTLVTVSS | 0.126 | 1.81 | 0.103 | 1.94 | 37.9 | 1900 | 25.2 | 149000 | 13 | – |
| PR002056 (antibody, human IgG1, V domains shown, no light chain; also called anti-OX40 HCAb antibody) VH: EVQLLESGGGLVQPGGSLRLSCAASGFTFSSYAMSWVRQAPGKGLEWVSAISGGGGSIFYADSVRGRFTISRDNSKNTLYLQMNSLRAEDTAVYYCANGMTGTTDVDYWGQGTLVTVSS | 0.0682 | 1.69 | 0.057 | 1.71 | 3.12 | 2930 | 4.89 | 154000 | 34 | 43.7 |
| PR002059 (antibody, human IgG1, V domains shown, no light chain; also called anti-OX40 HCAb antibody) VH: EVQLLESGGGLVQPGGSLRLSCVVSGLTFSSYAMSWVRQAPGKGREWVSAISGRGGSTFYADSVRGRFTISRDNSKNTLYLQMNSLRAEDTAVYYCANGMTGSTDVDYWGQGTLVTVSS | 0.0774 | 1.9 | 0.0695 | 2 | 1.35 | 3630 | 1.83 | 117000 | 79 | 15.9 |
| PR002064 (antibody, human IgG1, V domains shown, no light chain; also called anti-OX40 HCAb antibody) VH: EVQLVETGGGLVQPGGSLRLSCAASGFTFSSYAMSWVRQAPGKGQEWVSAISGSGGSTFYADSVRGRFTISRDNSKNTLYLQMSSLRAEDTAVYYCANGMTGTTDVDYWGQGTLVTVSS | 0.218 | 2.08 | 0.0814 | 2.28 | 22.4 | 1570 | 30.3 | 147000 | 20 | – |
| PR002069 (antibody, human IgG1, V domains shown, no light chain; also called anti-OX40 HCAb antibody) VH: EVQLLESGGGLVQPGGSLRLSCAASGFTFSSYAMSWVRQAPGKGREWVSAISGGGGNTFYADSVRGRFTISRDNSKNTLYLQMNSLRAEDTAVYYCANGVTGTTDVDYWGQGTLVTVSS | 0.129 | 2.24 | 0.051 | 2.24 | 4.43 | 2990 | 6.27 | 99700 | 53 | 50.9 |
| PR002070 (antibody, human IgG1, V domains shown, no light chain; also called anti-OX40 HCAb antibody) VH: EVQLLESGGGLVQPGGSLRLSCIASGFSFSSYAMSWVRQAPGKGLEWVSAISGRGGSTFYADSVRGRFNISRDNSKNTLYLQMNSLRVEDTAVYYCANGMTGTTDVDYWGQGTLVTVSS | 0.132 | 2.51 | 0.0729 | 2.4 | 4.39 | 2530 | 7.6 | 129000 | 46 | 67.6 |
